Key:
[1] = tested on: PANC1 and H460 cells; experiment: CCK-8 cell viability assay with rCHI3L1; type: cell-based, human; settings: PANC1 and H460, rCHI3L1 with mAbs at two doses
Protocol: PI3K/AKT/mTOR signaling pathway is important in regulating cell proliferation, survival and migration (Xu et al. 2020). Therefore, we investigated the effect of four selected mAbs on cancer cell behaviors. Human pancreatic (PANC1) and large cell cancer of the lung (H460) cells were treated with rCHI3L1 only or together with mAbs at two doses, and then subjected to cell counting kit 8 (CCK-8) cell viability assay. […] P values were determined by one-way ANOVA. * P<0.05, ** P<0.01, *** P<0.001, **** P<0.0001.

[2] = molecular target: human chitotriosidase-1 (CHIT1) (Homo sapiens, UniProt Q13231); experiment: ELISA binding specificity, CHIT1; settings: mAbs 1 μg/ml; coated protein 2.5 μg/ml to 0 μg/ml
Sequence of human chitotriosidase-1 (CHIT1) (Q13231 22-466): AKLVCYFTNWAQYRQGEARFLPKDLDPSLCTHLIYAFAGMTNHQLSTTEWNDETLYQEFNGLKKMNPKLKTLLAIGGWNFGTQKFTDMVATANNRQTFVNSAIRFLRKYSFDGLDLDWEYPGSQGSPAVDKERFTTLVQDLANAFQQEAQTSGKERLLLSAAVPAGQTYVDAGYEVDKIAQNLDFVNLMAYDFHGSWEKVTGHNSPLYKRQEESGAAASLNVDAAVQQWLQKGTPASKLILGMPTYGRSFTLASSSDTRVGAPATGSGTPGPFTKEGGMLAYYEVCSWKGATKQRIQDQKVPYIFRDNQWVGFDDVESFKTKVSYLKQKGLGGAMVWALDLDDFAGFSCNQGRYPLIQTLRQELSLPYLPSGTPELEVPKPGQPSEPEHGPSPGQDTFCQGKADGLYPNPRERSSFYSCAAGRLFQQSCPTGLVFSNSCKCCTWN
Protocol: (§1) Four selected clones of mAbs including R4-4, R4-54, 293R3-2, and 293R3-4 were further tested for blocking effect on human colorectal (HCT116, SW480, and SW620) and pancreatic cancer cell lines (PANC1 and MiaPaCa-2). […] P values were determined by one-way ANOVA. * P<0.05, ** P<0.01, *** P<0.001, **** P<0.0001. For binding specificity examination, we further coated different concentration of recombinant CHI3L1 protein, and two other major proteins in chitinase family including human chitotriosidase-1 (CHIT1) and CHI3L2 from 2.5 μg/ml to 0 μg/ml, on 96-well plate.

[3] = molecular target: recombinant CHI3L1 protein (Homo sapiens, UniProt P36222); experiment: ELISA binding specificity, CHI3L1; settings: mAbs 1 μg/ml; coated protein 2.5 μg/ml to 0 μg/ml
Sequence of recombinant CHI3L1 protein (P36222 22-383): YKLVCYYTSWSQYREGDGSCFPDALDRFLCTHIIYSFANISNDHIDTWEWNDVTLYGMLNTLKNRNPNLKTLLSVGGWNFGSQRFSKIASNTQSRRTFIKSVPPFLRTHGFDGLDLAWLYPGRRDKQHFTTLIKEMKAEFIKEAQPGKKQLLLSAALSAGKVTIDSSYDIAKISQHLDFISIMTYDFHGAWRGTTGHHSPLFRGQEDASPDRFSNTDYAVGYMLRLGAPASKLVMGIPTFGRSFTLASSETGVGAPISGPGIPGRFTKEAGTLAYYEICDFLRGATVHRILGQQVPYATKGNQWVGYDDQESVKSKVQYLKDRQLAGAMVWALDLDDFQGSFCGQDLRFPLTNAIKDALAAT
Protocol: as §1

[4] = molecular target: T1, hCHI3L1/flag-His (Homo sapiens, UniProt P36222); experiment: In tandem epitope binning on Octet Red96; type: binding
T1 construct: human CHI3L1 extracellular domain fused with flag and His tag
T1 sequence (P36222 22-383): as above
Protocol: In order to know the epitopic coverage for those four antibodies to increase the success of therapeutic CHI3L1 antibody development, epitope binning is used to characterize the binding site of mAbs to the corresponding antigen and summarized in the Table 4. In epitope binning, mAbs specific to the same target protein are tested pairwise against all mAbs in a set to assess whether they block one another's binding to a specific site of the antigen or not. The mAbs that block binding to the same epitope are “binned” together. mAbs within the same bin often function similarly, so epitope bins can narrow down the choices to fewer candidates for investigators to choose from. The in tandem epitope binning assay conducted on Octet Red96 comprised a five-step binding cycle; 1) a buffer baseline was established for 30 sec, 2) 100 nM hCHI3L1/flag-His was captured for 5 min, 3) 100 nM mAb array was loaded to saturate the captured antigen for 10 min, 4) 100 nM of the test mAb was bound for 5 min, and 5) the capture surfaces were regenerated for 30 sec. Anti-His surfaces were regenerated with 10 mM glycine pH 1.7. Raw data was processed using ForteBio's Data Analysis HT Software 11.1 and the antibody pairs were assessed for competitive binding. Additional binding by the second antibody indicates an unoccupied epitope (non-competitor, marked as *c in Table 4), while no binding indicates epitope blocking (competitor, marked as *b in Table 4) and self-competing antibodies were marked as *a in Table 4. Among four anti-CHI3L1 mAbs, there are two epitope clusters.

[5] = molecular target: T1, hCHI3L1/flag-His; experiment: ForteBio biolayer interferometry binding analysis; settings: mAb loaded on AHC sensor, analyte hCHI3L1
Protocol: Anti-CHI3L1 mAbs were loaded at 5 μg/mL on AHC (Anti-Human IgG Fc Capture, ForteBio, Cat #18-5060) for signal reach to approximate 0.5 nm. Sensors then were exposed to human CHI3L1 extracellular domain fused with flag and His tag recombinant protein, hCHI3L1/flag-His, solutions at 10 nM with 2 time serial dilution for 7 concentrations. Measurement were performed as follows: 1 min baseline in kinetic buffer, 5 minute association in 7 different concentrations hCHI3L1/flag-His and 5 minute dissociation into kinetic buffer. The kinetic parameters were calculated and produced by Octet Data Acquisition and Analysis Software.

[6] = tested on: SW480 and SW620 cells; experiment: rCHI3L1-induced foci formation; type: cell-based, human
[7] = tested on: PANC1 cells; experiment: Immunoblot of rCHI3L1-induced AKT and ERK phosphorylation, PANC1; type: cell-based, human; settings: PANC1, rCHI3L1 100 ng/ml, 20 minutes, different dose of mAbs
Protocol: The involvement of CHI3L1 in intracellular signaling pathways has been reported. For example, CHI3L1 binding to CD44 activates protein kinase B (AKT) and extracellular signal-regulated kinase (ERK) signaling to promote cancer progression (Chen, Jiang et al. 2021). Thus, we tested whether mAb clones R4-4, R4-54, 293R3-2, and 293R3-4 could attenuate AKT and ERK phosphorylation in human pancreatic (PANC1), colorectal (HCT116), and lung (A549) cancer cell lines. PANC1 cells were treated with rCHI3L1 (100 ng/ml) only or rCHI3L1 with different dose of mAbs as indicated for 20 minutes.

[8] = molecular target: CHI3L1-receptor(s) interaction on HCT116, SW480, SW620, PANC1 and MiaPaCa-2 (Homo sapiens, UniProt P36222); experiment: Flow cytometry blockage of rCHI3L1-receptor(s) interaction, colorectal and pancreatic cancer cell lines; type: cell-based; settings: HCT116, SW480, SW620, PANC1, MiaPaCa-2, flow cytometry
Sequence of CHI3L1-receptor(s) interaction on HCT116, SW480, SW620, PANC1 and MiaPaCa-2 (P36222 22-383): as above
Protocol: CHI3L1 have been reported to interact with several receptors on cancer cells, and trigger downstream signaling for cancer cell growth, proliferation and anti-apoptosis (Kamba et al. 2013; Lee et al. 2016). […] His-tagged rCHI3L1 was added for CHI3L1-receptor(s) interaction. Anti-His antibody AHAb with fluorescent F recognized CHI3L1-receptor(s) R complex for detection (left, FIG. 4A). Once fully human mAbs (nCHI3L1 Ab) blocked the CHI3L1-receptor(s) interaction, the fluorescent F signals were decreased (right, FIG. 4A) and cell signaling CS was blockade.
as §1

B1: R4-54: fully human anti-CHI3L1 IgG1 mAb, Table 1 No. 34; heavy chain SEQ ID NO: 33, light chain SEQ ID NO: 34 (antibody, listed as Homo sapiens)
VH: QVQLVESGGGVVQPGRSLRLSCAASGFTFSSYGMHWVRQAPGKGLEWVAVISYDGSDKDYADSVKGRFTISRDNSKNTLFLQMNSLRAEDTAVYYCARDDYDSTYYFDNWGQGTTVTVSS
light: SYELTQPPSVSVSPGQTASITCSGDILADQYASWYQQKPGQSPVLVIYHDTKRPSGVPERFSGSTSGNTATLTISGTQAMDEAAYYCQAWDINTAWVFGGGTQLTVLGQPKAAPSVTLFPPSSEELQANKATLVCLISDFYPGAVTVAWKADSSPVKAGVETTTPSKQSNNKYAASSYLSLTPEQWKSHRSYSCQVTHEGSTVEKTVAPTECS
cell viability (CCK-8) [1]: reduced the viability | binding specificity: recognition of CHIT1 [2]: no other chitinase proteins | binding specificity: recognition of CHI3L1 [3]: specifically recognized CHI3L1 | epitope cluster ([4]; among four anti-CHI3L1 mAbs): unidirectional blocking results | competitive binding class, CHI3L1 293R3-2 ([4]; paired with CHI3L1 293R3-2): *^b | Epitope Binning Heat Map value, CHI3L1 293R3-2 ([4]; paired with CHI3L1 293R3-2, 100 nM each): 0.1002 | competitive binding class, CHI3L1 293R3-4 ([4]; paired with CHI3L1 293R3-4): *^b | Epitope Binning Heat Map value, CHI3L1 293R3-4 ([4]; paired with CHI3L1 293R3-4, 100 nM each): 0.1425 | competitive binding class, CHI3L1 R4-4 ([4]; paired with CHI3L1 R4-4): *^c | Epitope Binning Heat Map value, CHI3L1 R4-4 ([4]; paired with CHI3L1 R4-4, 100 nM each): 1.1166 | competitive binding class, CHI3L1 R4-54 ([4]; paired with CHI3L1 R4-54): *^a | Epitope Binning Heat Map value, CHI3L1 R4-54 ([4]; paired with CHI3L1 R4-54, 100 nM each): 0.2160 | koff [5]: 0.0065 s⁻¹ | kon [5]: 1.54e+06 M⁻¹ s⁻¹ | number of foci [6]: decreased in a dose-dependent manner | p-AKT and p-ERK levels induced by rCHI3L1 [7]: inhibited p-AKT and p-ERK levels induced by rCHI3L1 in a dose dependent manner | rCHI3L1 binding to cells [8]: significantly reduced
